Data on seven molecules can be found in paper PMC12229497, “The intracellular bacterium Orientia tsutsugamushi uses the autotransporter ScaC to activate BICD adaptors for dynein-based motility” (Nature Communications, 2025).

Positions count from the first letter of the chain named. Names may count otherwise.

B1: ScaC passenger domain (residues 33–223), C-terminal TEV-6His (domain or fragment)
chain: VSNMNLDISNMGEAREGLRKDIAEVSKLLCMLEKSTASSKNLTMRLQQSDTRENEQSNHIRLLITEIESINKENDCLRQKNNQLKIKLHQLKVKLEQALARNTDLQQILPKSQAEMDNLRKQNEQLKIQLQQLQVKLQDLMSLQNKCSNLALINSVKLNYIRDIKYIALANIVIVKALASTFTEKLSKSNR
notes: source: SoluBL21 E. coli, purified (Ni-NTA, MonoQ, Superdex 200)
B2: ScaC-AF647 (ScaC-SNAP labelled with SNAP-Surface Alexa Fluor 647) (domain or fragment)
chain: B1 chain
modifications: Alexa Fluor 647 on the SNAP tag (SNAP-Surface Alexa Fluor 647)
notes: source: SoluBL21 E. coli, purified (Ni-NTA, MonoQ, labelling, Superdex 200)
B3: ScaC^50–159 (domain or fragment)
chain: LRKDIAEVSKLLCMLEKSTASSKNLTMRLQQSDTRENEQSNHIRLLITEIESINKENDCLRQKNNQLKIKLHQLKVKLEQALARNTDLQQILPKSQAEMDNLRKQNEQLK
notes: source: SoluBL21 E. coli, purified (StrepTactin, Superdex 200)
B4: Strep-BICD2^711–800 (CC3 domain) (domain or fragment, mouse, UniProt Q921C5 711-800, looked up)
chain: YENEKAMVTETMMKLRNELKALKEDAATFSSLRAMFATRCDEYITQLDEMQRQLAAAEDEKKTLNSLLRMAIQQKLALTQRLELLELDHE
notes: also called CC3 of BICD2; not shown: Strep, N-terminal, kept
B5: Strep-BICD2^711–800 L742A/L786A (domain or fragment, mouse, UniProt Q921C5 711-800, looked up)
chain: B4 chain with L32A, L76A
notes: also called double L742A/L786A mutant; not shown: Strep, N-terminal, kept
B6: Strep-BICD2^711–800 L786A (domain or fragment, mouse, UniProt Q921C5 711-800, looked up)
chain: B4 chain with L76A
notes: not shown: Strep, N-terminal, kept
B7: Strep-BICD2^711–800 L742A (domain or fragment, mouse, UniProt Q921C5 711-800, looked up)
chain: B4 chain with L32A
notes: as for B6

The target in data set [1] is T1, BICD2, full-length mouse (mouse, UniProt Q921C5 1-820).
T1 construct: also called full-length BICD2
T1 sequence (Q921C5 whole entry): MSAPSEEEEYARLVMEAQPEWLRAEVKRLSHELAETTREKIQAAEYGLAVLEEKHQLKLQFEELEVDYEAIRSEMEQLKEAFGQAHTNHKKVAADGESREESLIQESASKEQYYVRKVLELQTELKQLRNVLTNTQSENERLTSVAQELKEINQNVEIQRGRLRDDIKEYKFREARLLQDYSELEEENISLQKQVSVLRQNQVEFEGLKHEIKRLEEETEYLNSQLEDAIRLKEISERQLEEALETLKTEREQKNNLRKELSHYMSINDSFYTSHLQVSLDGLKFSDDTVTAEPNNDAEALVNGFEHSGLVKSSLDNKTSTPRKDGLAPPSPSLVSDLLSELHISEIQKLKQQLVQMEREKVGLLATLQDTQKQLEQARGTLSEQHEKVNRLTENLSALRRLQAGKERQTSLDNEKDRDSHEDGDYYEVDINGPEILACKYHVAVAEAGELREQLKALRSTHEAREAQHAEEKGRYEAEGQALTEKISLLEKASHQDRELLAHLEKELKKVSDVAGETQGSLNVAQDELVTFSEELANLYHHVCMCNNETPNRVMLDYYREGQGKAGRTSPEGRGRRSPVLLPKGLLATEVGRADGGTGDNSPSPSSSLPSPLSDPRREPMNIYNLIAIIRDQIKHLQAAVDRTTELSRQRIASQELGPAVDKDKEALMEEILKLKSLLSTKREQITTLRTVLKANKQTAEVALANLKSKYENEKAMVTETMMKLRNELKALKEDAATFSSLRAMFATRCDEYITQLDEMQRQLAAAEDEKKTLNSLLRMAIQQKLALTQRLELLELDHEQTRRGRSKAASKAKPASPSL
Briefly: SEC-MALS; 1 mg/mL, Superose 6 10/300, GF150 buffer, 0.5 ml/min. Particulars: both partners purified.

Data set [2] deals with the molecule itself. The data set is described as above.
The target in data set [3] is T2, BICD2-AF488 (BICD2-SNAP labelled with SNAP-Surface Alexa Fluor 488) (mouse, UniProt Q921C5 1-820, Alexa Fluor 488 on the SNAP tag (SNAP-Surface Alexa Fluor 488)).
T2 construct: also called BICD2-488; not shown: SNAP, C-terminal, kept
T2 sequence (Q921C5 whole entry): as above
In words: single-molecule TIRF dual-colour co-migration on microtubules. Particulars: both partners purified.

Data set [4] concerns the target T1, BICD2, full-length mouse. In words: SEC; reconstitution: BICD2 and ScaC constructs mixed in a 1:2 molar ratio, 15 min on ice, Superose 6 Increase 3.2/300 in GF150 buffer; fractions on SDS-PAGE. Particulars: both partners purified.
Data set [5] concerns the target B1. Described as above. Particulars: both partners purified.
In data set [6] the target is T3, GCN4-RANBP2^min (RANBP2 residues 2148–2240 fused to an N-terminal GCN4 dimerization tag) (human, UniProt P49792 2148-2240).
T3 construct: not shown: GCN4 dimerization tag, N-terminal, kept
T3 sequence (P49792 2148-2240): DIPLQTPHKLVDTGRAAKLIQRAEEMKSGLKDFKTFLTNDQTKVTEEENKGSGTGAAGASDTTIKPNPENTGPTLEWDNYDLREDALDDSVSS
Briefly: pull-down. Particulars: both partners purified.

Data set [7] deals with T4, RAB6^Q72L (GTP-locked RAB6 mutant) (human, UniProt P20340 1-208, Q72L).
T4 construct: source: SoluBL21 E. coli, purified (Glutathione Sepharose, GST cleaved, Superose 6, with 10 μM GTP); not shown: GST, N-terminal, cleaved
T4 sequence (P20340 whole entry Q72L): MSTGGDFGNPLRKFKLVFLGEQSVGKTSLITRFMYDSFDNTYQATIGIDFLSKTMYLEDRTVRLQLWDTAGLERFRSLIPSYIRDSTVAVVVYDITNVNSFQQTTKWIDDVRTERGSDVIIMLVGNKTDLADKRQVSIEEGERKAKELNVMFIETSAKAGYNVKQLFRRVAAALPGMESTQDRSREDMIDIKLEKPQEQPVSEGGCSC
In words: pull-down. Particulars: both partners purified.

The target of data set [8] is B1. In words: pull-down. Particulars: both partners purified.

For B1, the “stoichiometry N” value with BICD2, full-length mouse [1] is 1 ScaC:BICD2 (2:2); in data set [2], 2.

Take B2: the binding result in data set [3] was “binds”.

For the molecule B3, the binding result with BICD2, full-length mouse [4] is given as “binds”.

In the case of B4, the binding result in data set [5], in data set [6] and in data set [7] was “binds” in each case.

As to B5, in data set [8], the binding result is on record as “binds”.

On to B6, for which the binding result in data set [8] is given as “binds”.

On to B7, for which the binding result in data set [8] is listed as “binds”.
